The target of the assay is T1, Movement Protein of ToBRFV (Tomato Brown Rugose Fruit Virus …, UniProt A0A0S2SZW1 1-266).
T1 sequence: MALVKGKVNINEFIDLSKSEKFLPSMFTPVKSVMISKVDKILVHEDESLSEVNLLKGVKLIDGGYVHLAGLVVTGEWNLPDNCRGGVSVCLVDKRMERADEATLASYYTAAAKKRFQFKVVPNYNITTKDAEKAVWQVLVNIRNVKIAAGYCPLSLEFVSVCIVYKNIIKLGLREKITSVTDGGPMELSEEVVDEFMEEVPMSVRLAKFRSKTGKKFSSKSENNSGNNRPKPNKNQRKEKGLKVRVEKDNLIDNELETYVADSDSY
In words: cell-based or functional assay.

B1: TM-2-2 variant L12_11 (769 G) (receptor)
chain: MAEILLTSVINKSVEIAGNLLIQEGKRLYWLKEDIDWLQREMRHIRSYVDNAKAKEAGGDSRVKNLLKDIQELAGDVEDLLDDFLPKIQQSNKFNYCLKRSSFADEFAMEIEKIKRRVVDIDRIRKTYNIIDTDNNNDDCVLLDRRRLFLHADETEIIGLDDDFNMLQAKLLNQDLHYGVVSIVGMPGLGKTTLAKKLYRLIRDQFECSGLVYVSQQPRASEILLDIAKQIGLTEQKMKENLEDNLRSLLKIKRYVILLDDIWDVEIWDDLKLVLPECDSKVGSRMIITSRNSNVGRYIGGESSLHALQPLESEKSFELFTKKIFNFDDNNSWANASPDLVNIGRNIVGRCGGIPLAIVVTAGMLRARERTEHAWNRVLESMGHKVQDGCAKVLALSYNDLPIASRPCFLYFGLYPEDHEIRAFDLINMWIAEKFIVVNSGNRREAEDLAEDVLNDLVSRNLIQLAKRTYNGRISSCRIHDLLHSLCVDLAKESNFFHTAHDAFGDPGNVARLRRITFYSDNVMIEFFRSNPKLEKLRVLFCFAKDPSIFSHMAYFDFKLLHTLVVVMSQSFQAYVTIPSKFGNMTCLRYLRLEGNICGKLPNSIVKLTRLETIDIDRRSLIQPPSGVWESKHLRHLCYRDYGQACNSCFSISSFYPNIYSLHPNNLQTLMWIPDKFFEPRLLHRLINLRKLGILGVSNSTVKMLSIFSPVLKALEVLKLSFSSDPSEQIKLSSYPHIAKLHLNVNRTMALNSQSFPPNLIKLTLAYFGVDRYILAVLKTFPKLRKLKMFICKYNEEKMDLSGEANGYSFPQLEVLHIHSPNGLSEVTCTDDVSMPKLKKLLLTGFHCRISLSERLKKLSK
Regarding B1, the “HR to MP Rugose” value was less than 1 HR scale 0-4.

B2: TM-2-2 variant L12_3 (769 V) (receptor)
chain: MAEILLTSVINKSVEIAGNLLIQEGKRLYWLKEDIDWLQREMRHIRSYVDNAKAKEAGGDSRVKNLLKDIQELAGDVEDLLDDFLPKIQQSNKFNYCLKRSSFADEFAMEIEKIKRRVVDIDRIRKTYNIIDTDNNNDDCVLLDRRRLFLHADETEIIGLDDDFNMLQAKLLNQDLHYGVVSIVGMPGLGKTTLAKKLYRLIRDQFECSGLVYVSQQPRASEILLDIAKQIGLTEQKMKENLEDNLRSLLKIKRYVILLDDIWDVEIWDDLKLVLPECDSKVGSRMIITSRNSNVGRYIGGESSLHALQPLESEKSFELFTKKIFNFDDNNSWANASPDLVNIGRNIVGRCGGIPLAIVVTAGMLRARERTEHAWNRVLESMGHKVQDGCAKVLALSYNDLPIASRPCFLYFGLYPEDHEIRAFDLINMWIAEKFIVVNSGNRREAEDLAEDVLNDLVSRNLIQLAKRTYNGRISSCRIHDLLHSLCVDLAKESNFFHTAHDAFGDPGNVARLRRITFYSDNVMIEFFRSNPKLEKLRVLFCFAKDPSIFSHMAYFDFKLLHTLVVVMSQSFQAYVTIPSKFGNMTCLRYLRLEGNICGKLPNSIVKLTRLETIDIDRRSLIQPPSGVWESKHLRHLCYRDYGQACNSCFSISSFYPNIYSLHPNNLQTLMWIPDKFFEPRLLHRLINLRKLGILGVSNSTVKMLSIFSPVLKALEVLKLSFSSDPSEQIKLSSYPHIAKLHLNVNRTMALNSQSFPPNLIKLTLAYFVVDRYILAVLKTFPKLRKLKMFICKYNEEKMDLSGEANGYSFPQLEVLHIHSPNGLSEVTCTDDVSMPKLKKLLLTGFHCRISLSERLKKLSK
With B2, the “HR to MP Rugose” value is less than 1 HR scale 0-4.

B3: TM-2-2 variant L12_A (769 A) (receptor)
chain: MAEILLTSVINKSVEIAGNLLIQEGKRLYWLKEDIDWLQREMRHIRSYVDNAKAKEAGGDSRVKNLLKDIQELAGDVEDLLDDFLPKIQQSNKFNYCLKRSSFADEFAMEIEKIKRRVVDIDRIRKTYNIIDTDNNNDDCVLLDRRRLFLHADETEIIGLDDDFNMLQAKLLNQDLHYGVVSIVGMPGLGKTTLAKKLYRLIRDQFECSGLVYVSQQPRASEILLDIAKQIGLTEQKMKENLEDNLRSLLKIKRYVILLDDIWDVEIWDDLKLVLPECDSKVGSRMIITSRNSNVGRYIGGESSLHALQPLESEKSFELFTKKIFNFDDNNSWANASPDLVNIGRNIVGRCGGIPLAIVVTAGMLRARERTEHAWNRVLESMGHKVQDGCAKVLALSYNDLPIASRPCFLYFGLYPEDHEIRAFDLINMWIAEKFIVVNSGNRREAEDLAEDVLNDLVSRNLIQLAKRTYNGRISSCRIHDLLHSLCVDLAKESNFFHTAHDAFGDPGNVARLRRITFYSDNVMIEFFRSNPKLEKLRVLFCFAKDPSIFSHMAYFDFKLLHTLVVVMSQSFQAYVTIPSKFGNMTCLRYLRLEGNICGKLPNSIVKLTRLETIDIDRRSLIQPPSGVWESKHLRHLCYRDYGQACNSCFSISSFYPNIYSLHPNNLQTLMWIPDKFFEPRLLHRLINLRKLGILGVSNSTVKMLSIFSPVLKALEVLKLSFSSDPSEQIKLSSYPHIAKLHLNVNRTMALNSQSFPPNLIKLTLAYFAVDRYILAVLKTFPKLRKLKMFICKYNEEKMDLSGEANGYSFPQLEVLHIHSPNGLSEVTCTDDVSMPKLKKLLLTGFHCRISLSERLKKLSK
Regarding B3, the “HR to MP Rugose” value turned out to be 0 HR scale 0-4.

B4: TM-2-2 variant L12_12 (769 R) (receptor)
chain: MAEILLTSVINKSVEIAGNLLIQEGKRLYWLKEDIDWLQREMRHIRSYVDNAKAKEAGGDSRVKNLLKDIQELAGDVEDLLDDFLPKIQQSNKFNYCLKRSSFADEFAMEIEKIKRRVVDIDRIRKTYNIIDTDNNNDDCVLLDRRRLFLHADETEIIGLDDDFNMLQAKLLNQDLHYGVVSIVGMPGLGKTTLAKKLYRLIRDQFECSGLVYVSQQPRASEILLDIAKQIGLTEQKMKENLEDNLRSLLKIKRYVILLDDIWDVEIWDDLKLVLPECDSKVGSRMIITSRNSNVGRYIGGESSLHALQPLESEKSFELFTKKIFNFDDNNSWANASPDLVNIGRNIVGRCGGIPLAIVVTAGMLRARERTEHAWNRVLESMGHKVQDGCAKVLALSYNDLPIASRPCFLYFGLYPEDHEIRAFDLINMWIAEKFIVVNSGNRREAEDLAEDVLNDLVSRNLIQLAKRTYNGRISSCRIHDLLHSLCVDLAKESNFFHTAHDAFGDPGNVARLRRITFYSDNVMIEFFRSNPKLEKLRVLFCFAKDPSIFSHMAYFDFKLLHTLVVVMSQSFQAYVTIPSKFGNMTCLRYLRLEGNICGKLPNSIVKLTRLETIDIDRRSLIQPPSGVWESKHLRHLCYRDYGQACNSCFSISSFYPNIYSLHPNNLQTLMWIPDKFFEPRLLHRLINLRKLGILGVSNSTVKMLSIFSPVLKALEVLKLSFSSDPSEQIKLSSYPHIAKLHLNVNRTMALNSQSFPPNLIKLTLAYFRVDRYILAVLKTFPKLRKLKMFICKYNEEKMDLSGEANGYSFPQLEVLHIHSPNGLSEVTCTDDVSMPKLKKLLLTGFHCRISLSERLKKLSK
For the molecule B4, the “HR to MP Rugose” value was less than 1 HR scale 0-4.

B5: TM-2-2 variant L12_4 (769 F) (receptor)
chain: MAEILLTSVINKSVEIAGNLLIQEGKRLYWLKEDIDWLQREMRHIRSYVDNAKAKEAGGDSRVKNLLKDIQELAGDVEDLLDDFLPKIQQSNKFNYCLKRSSFADEFAMEIEKIKRRVVDIDRIRKTYNIIDTDNNNDDCVLLDRRRLFLHADETEIIGLDDDFNMLQAKLLNQDLHYGVVSIVGMPGLGKTTLAKKLYRLIRDQFECSGLVYVSQQPRASEILLDIAKQIGLTEQKMKENLEDNLRSLLKIKRYVILLDDIWDVEIWDDLKLVLPECDSKVGSRMIITSRNSNVGRYIGGESSLHALQPLESEKSFELFTKKIFNFDDNNSWANASPDLVNIGRNIVGRCGGIPLAIVVTAGMLRARERTEHAWNRVLESMGHKVQDGCAKVLALSYNDLPIASRPCFLYFGLYPEDHEIRAFDLINMWIAEKFIVVNSGNRREAEDLAEDVLNDLVSRNLIQLAKRTYNGRISSCRIHDLLHSLCVDLAKESNFFHTAHDAFGDPGNVARLRRITFYSDNVMIEFFRSNPKLEKLRVLFCFAKDPSIFSHMAYFDFKLLHTLVVVMSQSFQAYVTIPSKFGNMTCLRYLRLEGNICGKLPNSIVKLTRLETIDIDRRSLIQPPSGVWESKHLRHLCYRDYGQACNSCFSISSFYPNIYSLHPNNLQTLMWIPDKFFEPRLLHRLINLRKLGILGVSNSTVKMLSIFSPVLKALEVLKLSFSSDPSEQIKLSSYPHIAKLHLNVNRTMALNSQSFPPNLIKLTLAYFFVDRYILAVLKTFPKLRKLKMFICKYNEEKMDLSGEANGYSFPQLEVLHIHSPNGLSEVTCTDDVSMPKLKKLLLTGFHCRISLSERLKKLSK
As to B5, the “HR to MP Rugose” value is less than 1 HR scale 0-4.

B6: TM-2-2 variant L12_16 (769 E) (receptor)
chain: MAEILLTSVINKSVEIAGNLLIQEGKRLYWLKEDIDWLQREMRHIRSYVDNAKAKEAGGDSRVKNLLKDIQELAGDVEDLLDDFLPKIQQSNKFNYCLKRSSFADEFAMEIEKIKRRVVDIDRIRKTYNIIDTDNNNDDCVLLDRRRLFLHADETEIIGLDDDFNMLQAKLLNQDLHYGVVSIVGMPGLGKTTLAKKLYRLIRDQFECSGLVYVSQQPRASEILLDIAKQIGLTEQKMKENLEDNLRSLLKIKRYVILLDDIWDVEIWDDLKLVLPECDSKVGSRMIITSRNSNVGRYIGGESSLHALQPLESEKSFELFTKKIFNFDDNNSWANASPDLVNIGRNIVGRCGGIPLAIVVTAGMLRARERTEHAWNRVLESMGHKVQDGCAKVLALSYNDLPIASRPCFLYFGLYPEDHEIRAFDLINMWIAEKFIVVNSGNRREAEDLAEDVLNDLVSRNLIQLAKRTYNGRISSCRIHDLLHSLCVDLAKESNFFHTAHDAFGDPGNVARLRRITFYSDNVMIEFFRSNPKLEKLRVLFCFAKDPSIFSHMAYFDFKLLHTLVVVMSQSFQAYVTIPSKFGNMTCLRYLRLEGNICGKLPNSIVKLTRLETIDIDRRSLIQPPSGVWESKHLRHLCYRDYGQACNSCFSISSFYPNIYSLHPNNLQTLMWIPDKFFEPRLLHRLINLRKLGILGVSNSTVKMLSIFSPVLKALEVLKLSFSSDPSEQIKLSSYPHIAKLHLNVNRTMALNSQSFPPNLIKLTLAYFEVDRYILAVLKTFPKLRKLKMFICKYNEEKMDLSGEANGYSFPQLEVLHIHSPNGLSEVTCTDDVSMPKLKKLLLTGFHCRISLSERLKKLSK
In the case of B6, the “HR to MP Rugose” value is less than 1 HR scale 0-4.
